Data from the DeepSol protein solubility set.

Assay: soluble on expression in E. coli; label from the status in PepcDB or PDB records

| Sequence | soluble on expression in E. coli |
| --- | --- |
| MSDNKESKKISIEIDGKDYQALPNQSIIEVADANGIYIPRFCYHKKLSVAANCRMCLVDVEGARRASPACATPVMDGMKVKTRSEEALQMQKDVMEFLLINHPLDCPICDQGGECELQDIAMGYGNTTSEYLESKRTVEDPELGPLVATDMTRCILCTRCVRFGEEIAGVKELGVMGRGDHSAISTYISGEMVDSEISANIIDLCPVGALTSKPFRFKARSWELKQFPTLSAGDALATEINAHIYQNKLVRVVPRENDITGTWIADRDRFEYTGLYSQDRIQQPMIKKTGDWVDLSWEEALDFVKVAIQKTIEKDGADAISAIVSETATSEEMYLTKKLLAAVGSVNIDARVRQYADIPGISAGKGLSCSLEDIRESDFILVFGSNIRKEYPLVNIAIKDAVEKNAAKAVAWNVCDYNFNYDIKQVRLAADNIQYIALSLLKAIFVRANLPYGDLDEILRKVDPAAEVRDVADRIVAAKAPKIIIGQDIVNTSGFETVFSILDVLEKVTSVRGGVLATNVNSVAADRIFSSSKSKFSTYKCLNGRTNTKLLLTVHTELAKDSLYGEQKLRNALENIDIVVSFTAFADKFTKDTADIILPIATHYETSGSFVDLFGNRKEFKQVVKPYAGNKELWRVLRVLGNLLELEGFDYNSIAEVTNDAYATRARVGVNHVTQILNANLDYQKEVAFVASNSMYSTTSLLRRAEPLQKTTDAKRFAGVRISQELADEIGLKGQSGVIKIYNIDNEINPEVVVDPSLQAKNIMLPRALFKDFLSSDNISIKLVEEER | not soluble |
| MSDNLKIGLQYLTPKHALTRLAGKLASAKMGWLTTAVIKWFIKQYNVNMDEAKNPDPEAYSTFNNFFVRELEDGARPINEDDSVISHPADACVSQFGPIMDGKLVQAKGHVYSAQELLGGDEALAAEFMGGEFATLYLSPSDYHRVHMPCDATLRKMIYVPGDLFSVNPLTAENVPNLFARNERVVCIFDTEFGPMAQILVGATIVGSIETTWAETVTPPTGPAVKTWHYPLSGDDMICFKKGEEMGRFKLGSTVINLFAPNSIKFDDSMENGTPTRMGTPFAHIVKLEHHHHHH | soluble |
| MSDPADVFDLVGLTEYEATALEQLLSLGRTTAPNLAEASGIPKARVYGVLESLSDRGFIKLIPGRPKEYQPKSPSDILDRAVENRKQSYESFAADMDSYRDAFLAEYEPRFERANEDISPTAELFHVVDVGEPSERETRRLYDDADETLRVITNSFAYLDNVERALAETLDRGVEVNVLFLHPDALPPEKAAVQADIVDRLTAEYPAIDLRFSTEKLPWRGTLVDPSMDYDSGEAILLVEEPDVPNHMRQAAITDNGSFVAGMKRYFDLVWEYESVQRSN | not soluble |
| MSDPAGGKALRRDAAENRQRLLDAAATVFSARGLDVGVDEIARVAGVGIGTLYRRFPTKDALISELVRQVLEDFLTLAHEALSAPEGEGLEQVLYGSGAILASNRGCLSRMWNDDQTTVLRNEYRRILFELLAGAKQHGRIREDATEADLDLIFWSLRGVVATTRGVTDTGWRRILAVMIAGLRPGAERLDAAPLSAQDVAQIMENLWPR | not soluble |
| MSDVNAPAGLAALEARLQQDLAWLDLPAKPWVKPRTNAGQAVLDVAIIGGGMAGLALAAELRHLGVAAVIFDQSPAGFEGPWATTARMETLRSPKQLTGPALGLPALTFRAWYEAQFGADGWAALDKIPRLQWAEYLRWYRKALALDVRNEHRVSRVAPRTDGLVELDIMTPGQTRFMLARHVVLATGRDGLGGPWVPDFARQLPDHLWTHSAAGLQDDWFEGRRVAVIGGGASAMDSAATALEAGAQRVDLLIRRAELPRVNKGKGVGNPGMVHGYWRLPDIWKWRIRHYLNRQQVPPPRGSTLRVSRSGRARFLLDNPVLAVEANPAGGVWLQTSKARVEADFVVFATGFRTDFELRPEFAPFSSHIRVWQDRFEAPEGEADSELAVLPDLGNCFEFQEKTPGACPGLNHIHCFSYPAALSYGAVSGDIPAISEGSKRLAHALIGLLFNEDIALHFESMRSYAEPELLGDEWVASEPGTEELRPLEHHHHHH | not soluble |
| MSEAWITLATNDNYAQGALVLVHSLRTAGTTRKIHCLISNEVSAPVRKQLEEHFDDVSIVDVFNSNDSDNLRLIERPDLGVTFTKLHCWRLTQYTKCVFLDADTLVLRNADELFTRPDFSAASDIGWPDSFNSGVFVYVPNNETYRQLVDFAVTHGSYDGGDQGLLNDFFSNWRDLPSEHRLPFIYNMTAGAFYTYAAAYKRYGANTKIVHFIGSVKPWHGSAAVHTGEHFQQWQKIYHAHVNHTSRTNEHAAVFPSHHHTPEHRSHSADHPKIERKDSIVREIGNFVMHVVQSVNILPSYDTDANTSDSHRNNEPHKHDQQREEHHELPHNKFQTPHEESQDIVGSTDCFGSQMPKYNADSETDREVEQITNNTPCPAFVPFERREEYQAASPSTEERRAAWEAGQPDYLGRDAFVHIQEALNRALNE | not soluble |
